Ends that are not written are not given here.

For 5 molecules, Kd results are on record in publication PMC8038991 (2021).

For assay [1], the target named is purified wild type ZZ fragment p62 (122-175) of the ITC table (Fig. 3b) (human, UniProt Q13501 122-175). The assay can be described thus: ITC. In general terms: In ITC the heat of successive injections is recorded.
Assay [2] addresses N132Q ZZ fragment p62 (122-175) (Homo sapiens). The assay can be described thus: ITC.

Chain of N132Q ZZ fragment p62 (122-175) (Homo sapiens) (chain, as listed by the source N132Q): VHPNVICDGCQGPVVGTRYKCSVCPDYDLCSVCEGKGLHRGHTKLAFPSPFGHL

B1: HIFS (peptide)
chain: HIFS
In general, Kd refers to the equilibrium constant for the complex coming apart. A high value points to a looser complex. B1: the Kd in assay [1] amounted to 300 µM.

B2: WIFS (peptide)
chain: WIFS
In assay [1], B2 had a Kd of 374 µM.

B3: KIFS (peptide)
chain: KIFS
In the case of B3, binding in assay [1] was put at a Kd of 51.8 µM.

B4: YIFS tetrapeptide (Nt-Tyr) (peptide)
peptide: YIFS
modifications: also: two Zn2+ ions bound
With B4, the Kd in assay [2] is 143 µM.

B5: RIFS tetrapeptide (Nt-Arg) (peptide)
peptide: RIFS
modifications: also: two Zn2+ ions bound
Molecule B5 returned a Kd in assay [2] of 21.4 µM.
